We go through two substances from article PMC8744954.

One assay has as its target Jun (Homo sapiens) (UniProt P05412). Conditions: cited from earlier work.
The target of assay [1] is p53 proteins tested (wild type p53 and 46 common clinical mutants). Put plainly: SPR; NAPPA-SPRi: p53 proteins with GST-E-coil translated in situ and captured by K-coil peptide on a gold slide; purified full-length MDM2 20 μg/mL injected at 3 μL/s; running buffer 1x PBS, 1% Tween 20; 1:1 fit with Scrubber 2.0; apparent constants.

pKd: −log10 of the molar value.

Chain of UniProt P05412 (P05412 whole entry): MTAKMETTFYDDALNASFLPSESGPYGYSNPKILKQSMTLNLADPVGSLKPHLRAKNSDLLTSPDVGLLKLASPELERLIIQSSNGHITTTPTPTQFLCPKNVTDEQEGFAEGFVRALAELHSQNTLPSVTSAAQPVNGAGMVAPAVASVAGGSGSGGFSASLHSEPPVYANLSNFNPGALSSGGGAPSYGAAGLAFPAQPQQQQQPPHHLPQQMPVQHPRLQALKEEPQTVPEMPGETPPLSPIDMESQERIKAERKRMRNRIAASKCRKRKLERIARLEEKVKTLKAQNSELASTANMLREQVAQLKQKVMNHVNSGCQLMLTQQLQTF

With Fos (from UniProt P01100), the negative-log Kd (pKd) with Jun (Homo sapiens) is 9.00. Regarding “MDM2, full-length purified recombinant (from UniProt Q00987 1-491) (natural protein)”, in assay [1], the negative-log Kd (pKd) is 5.87 to 8.55 and the median KD was determined as 105 nM.

Usually pKd stands for −log10 of the Kd, conventionally taken in molar units.
